Measured values: patent publication US20260217813A1 (published 2026)

T1: IL-12 (Human IL12 (His Tag)), Sino Biological Cat. No. CT-050-H08H-20 (human, UniProt P29460 23-328; P29459 23-219)
T1 construct: Bought His-tagged p35/p40 heterodimer
T1 sequence (looked up) 1: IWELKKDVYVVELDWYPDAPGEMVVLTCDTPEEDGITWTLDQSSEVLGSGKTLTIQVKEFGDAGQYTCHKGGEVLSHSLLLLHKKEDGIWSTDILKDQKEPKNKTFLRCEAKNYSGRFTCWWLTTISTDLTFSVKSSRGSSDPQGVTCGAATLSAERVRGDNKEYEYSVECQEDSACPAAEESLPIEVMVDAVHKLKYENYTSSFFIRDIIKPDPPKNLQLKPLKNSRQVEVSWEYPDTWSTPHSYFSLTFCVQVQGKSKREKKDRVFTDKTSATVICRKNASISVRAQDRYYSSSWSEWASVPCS
T1 sequence (looked up) 2: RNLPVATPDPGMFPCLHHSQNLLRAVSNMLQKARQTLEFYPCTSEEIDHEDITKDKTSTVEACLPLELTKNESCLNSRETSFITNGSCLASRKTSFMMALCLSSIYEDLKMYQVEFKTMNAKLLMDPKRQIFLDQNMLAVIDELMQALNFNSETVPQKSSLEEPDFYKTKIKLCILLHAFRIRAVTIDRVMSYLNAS


The binders below were run against T1, IL-12 (Human IL12 (His Tag)), Sino … (assay: FACS competition, IL12-His (40 nM mixed 1:1) on 293T-IL-12RB1&IL-23R cells).
Protocol: 200 μL of 1% PBSA was added into each sample, and the mixture was centrifuged at 1200 rpm for 5 min to discard the supernatant. According to experiment design, correspondingly diluted antibody (highest final concentration of 60 μg/mL, 3-fold dilution, 8 concentrations in total) and IL12-His (Sino Biological, Cat. No.: CT-050-H08H-20) (40 nM) were mixed at a ratio of 1:1, and a blank control was set. The mixture of antibody and IL12 was incubated on ice for 30 min and then added to the cell precipitate at 100 μL/sample. The resulting mixture was well mixed and incubated on ice for 60 min. 200 μL of 1% PBSA was added, and the mixture was centrifuged at 1200 rpm for 5 min to discard the supernatant, and then washed twice. THETM His tag antibody (FITC) (Genscript, Cat. No.: A01620) was diluted at a ratio of 1:500 and added to each tube at 100 μL. The mixture was well mixed and incubated on ice for 40 min in the absence of light. 200 μL of 1% PBSA was added, and the mixture was centrifuged at 1200 rpm for 5 min to discard the supernatant, and then washed twice. 1% PBSA was added at 200 μL/tube, and the cells were resuspended and transferred to a flow cytometry tube for testing.

| Binder | EC50 [µg/mL] |
| --- | --- |
| ustekinumab (trade name Stelara) (antibody, V domains shown) VH: EVQLVQSGAEVKKPGESLKISCKGSGYSFTTYWLGWVRQMPGKGLDWIGIMSPVDSDIRYSPSFQGQVTMSVDKSITTAYLQWNSLKASDTAMYYCARRRPGQGYFDFWGQGTLVTVSS VL: DIQMTQSPSSLSASVGDRVTITCRASQGISSWLAWYQQKPEKAPKSLIYAASSLQSGVPSRFSGSGSGTDFTLTISSLQPEDFATYYCQQYNIYPYTFGQGTKLEIK | 1.58 |

What follows are binders tested against T1, IL-12 (Human IL12 (His Tag)), Sino … (assay: FACS competition, IL-12-His 20 nM on 293T-IL-12RB1&IL-23R cells).
Protocol: 200 μL of 1% PBSA was added into each sample, and the mixture was centrifuged at 700×g for 5 min to discard the supernatant. According to experiment design, correspondingly diluted antibody (highest final concentration of 30 μg/mL, 3-fold dilution, 8 concentrations in total) and human IL-12 (Sino Biological, Cat. No.: CT-050-H08H-20) (final concentration of 20 nM) were mixed at a ratio of 1:1, and a blank control was set. The mixture of antibody and human IL12 was incubated on ice for 30 min and then added to the cell precipitate at 100 μL/sample. The resulting mixture was well mixed and incubated on ice for 60 min. 200 μL of 1% PBSA was added, and the mixture was centrifuged at 700×g for 5 min to discard the supernatant, and then washed twice. Alexa Fluor® 488 anti-His tag antibody (Biolegend, Cat. No.: 652509) was diluted at a ratio of 1:400 and added to each tube at 100 μL. The mixture was well mixed and incubated on ice for 40 min in the absence of light. 200 μL of 1% PBSA was added, and the mixture was centrifuged at 700×g for 5 min to discard the supernatant, and then washed twice. 1% PBSA was added at 200 μL/tube, and the cells were resuspended and transferred to a flow cytometry tube for testing.

| Binder | EC50 [µg/mL] |
| --- | --- |
| H5L10 (antibody, human IgG1, kappa, V domains shown, IgG1/kappa) VH: EVQLVQSGAEVKKPGESLKISCQSSGYSFTTYWIGWVRQMPGQGLEWIGIMSPVDSDIRYNPMFRGQVTMSVDKSSSTAYLQWSSLKASDTAMYYCARRRPGQGYFDFWGQGTMVTVSS VL: EIVLTQSPATLSASPGERATISCRASQSVGSWLAWYQQKPGQAPRSLIYAASNLQSGIPARFSGSGSGTDFTLTISSLEPEDFAVYYCQQYNIYPYTFGQGTRLEIKR | 0.331 |
| H5L11 (antibody, human IgG1, kappa, V domains shown, IgG1/kappa) VH: EVQLVQSGAEVKKPGESLKISCQSSGYSFTTYWIGWVRQMPGQGLEWIGIMSPVDSDIRYNPMFRGQVTMSVDKSSSTAYLQWSSLKASDTAMYYCARRRPGQGYFDFWGQGTMVTVSS VL: EIVLTQSPATLSASPGERATISCRASQSVSSWLAWYQQKPGQAPRSLIYSASNLQSGIPARFSGSGSGTDFTLTISSLEPEDFAVYYCQQYNIYPYTFGQGTRLEIKR | 0.414 |
| H5L12 (antibody, human IgG1, kappa, V domains shown, IgG1/kappa) VH: EVQLVQSGAEVKKPGESLKISCQSSGYSFTTYWIGWVRQMPGQGLEWIGIMSPVDSDIRYNPMFRGQVTMSVDKSSSTAYLQWSSLKASDTAMYYCARRRPGQGYFDFWGQGTMVTVSS VL: EIVLTQSPATLSASPGERATISCRASQSVSSWLAWYQQKPGQAPRSLIYAASNRQSGIPARFSGSGSGTDFTLTISSLEPEDFAVYYCQQYNIYPYTFGQGTRLEIKR | 0.317 |
| H5L14 (antibody, human IgG1, kappa, V domains shown, IgG1/kappa) VH: EVQLVQSGAEVKKPGESLKISCQSSGYSFTTYWIGWVRQMPGQGLEWIGIMSPVDSDIRYNPMFRGQVTMSVDKSSSTAYLQWSSLKASDTAMYYCARRRPGQGYFDFWGQGTMVTVSS VL: EIVLTQSPATLSASPGERATISCRASQSVSSWLAWYQQKPGQAPRSLIYAASNLQSGIPARFSGSGSGTDFTLTISSLEPEDFAVYYCQQYNIYPFTFGQGTRLEIKR | 0.532 |
| ustekinumab (trade name Stelara) (antibody, V domains shown) VH: EVQLVQSGAEVKKPGESLKISCKGSGYSFTTYWLGWVRQMPGKGLDWIGIMSPVDSDIRYSPSFQGQVTMSVDKSITTAYLQWNSLKASDTAMYYCARRRPGQGYFDFWGQGTLVTVSS VL: DIQMTQSPSSLSASVGDRVTITCRASQGISSWLAWYQQKPEKAPKSLIYAASSLQSGVPSRFSGSGSGTDFTLTISSLQPEDFATYYCQQYNIYPYTFGQGTKLEIK | 0.377 |
